Here are results for 18 sequences from the DeepSol protein solubility set.

A short description of the data set: soluble on expression in E. coli; label from the status in PepcDB or PDB records.
For “MDYTIENNMIKVVISDHGAEIQSVKSAHTDEEFMWQANPEIWGRHAPVLFPIVGRLKNDEYTYKGKTYHLGQHGFARNADFEVENHTKESITFLLKDNEETRKVYPFKFEFRVNYNLMNNLLEENFSVVNKSDETMIFGVGGHPGFNLPTDHGENKEDFYFDMHPSVTRVRIPLKDASLDWNNRSLAPTDSLIALSDDLFKDDALIYELRGNDNKVSLRTDKNKFHVNVWTRDAPFVGIWSQYPKTDNYVCIEPWWGIADRDDADGDLEHKYGMNHLKPGKEFQAGFSMTYHSTTDEVKLEHHHHHH”, the “soluble on expression in E. coli” value was “soluble”.

With “TYKKPSDAELKRTLTEEQYQVTQNSATEYAFSHEYDHLFKPGIYVDVVSGEPLFSSADKYDSGSGWPSFTRPIDAKSVTEHDDFSYNMRRTEVRSHAADSHLGHVFPDGPRDKGGLRYSINGASLKFIPLEQMDAAGYGALKSKVK”, the “soluble on expression in E. coli” value was “soluble”.

Consider “LTVLELESQIDVLSRIQFVSRFGSNLVHIEGVKGSGKSWLAQRYLEKWCDDADQVLLMCHPNQSIQQQRGIILKQVVRDPLFNESDSVVDSVGRMLAGEKCNLVLAIDDAHLLSSELLSELWLLVQKAQSAPNWQINILLFAEKGKLTQTLSQMSYGQDNKPVDIDINP”, for which the “soluble on expression in E. coli” value is listed as “soluble”.

In the case of “MGSDKIHHHHHHMEFIPPKRLLELIRQYSTTFENWHSVMLSIYLHKERIKCKLRNGQLLYLKPNEIVLLAGLKIVELNEDSVRFQFNGREICLKGWKLSYPGDSFSDYWRIDVRGKRVLDIGAGIGDSPIYFSIAGAKEVVAVEVDSKKVELMRENLKANSINNVIVVDKGVGIKDDENYISWPKLISNYGPFDVAKIDCDGCEKIIVPYIKEIPSLLIEWDYNYKDIVSNLTKNGYKVKVEHTLKNLGFIYAKKR”, the “soluble on expression in E. coli” value is “not soluble”.

As for “IRHEITSRTSVSVLVNRCNWFCTSPKCSGLTVMGCLCVAMSVAKKDKPTMSVTALINWARPLPPGQQQQPMTPTSPGNMLQPMATPSNLPTVDCSLDIQWLNLEGGFMSPMSPPEMKPDTAMLDGLRDDSTPPPAFKNYPPNHPLSGSKHLCSICGDRASGKHYGVYSCEGCKGFFKRTVRKDLTYACREERNCIIDKRQRNRCQYCRYQKCLACGMKREAVQEERQRAARGTEDAHPSSSVQVQELSIERLLEMESLVADPSEEFQFLRVGPDSNVPPKFRAPVSSLCQIGNKQIAALVVWARDIPHFSQLEMEDQILLIKGSWNELLLFAIAWRSMEFLTEERDGVDGTGNRTTSPPQLMCLMPGMTLHRNSALQAGVGQIFDRVLSELSLKMRTLRVDQAEYVALKAIILLNPDVKGLKNRQEVEVLREKMFLCLDEYCRRSRSSEEGRFAALLLRLPALRSISLKSFEHLFFFHLVADTSIAGYIRDALRNHAPPIDTNMM”, the “soluble on expression in E. coli” value is listed as “soluble”.

As to “MTTTIEVGMLGLGTVGSGVVERLTRSAAKIEQTQGIRLHLAAVAVNHLNAPRTVQLPIGTRLTDSLTNVVCDRKIQLVIEVMGTVATAKKAIVAALNQGKAVVTANKDLIATAGPELAALAKKQGCDLFYEASVAGGIPILRTLTDSYVTDNVQAVSGIINGTANYMLSAMATGQSYEQALATAQATGYAEADPTNDVAGIDAAYKLMILSRFAFGQELSLPQIAPTGITHLSASVCRLAAENGWQIKLLAQIQRHGSGLYCRVAPVAVPVDQPLSQINGVQNAVAVQSEAIGTSLYTGPGAGSTATANSVLNDVLVAAKHLINGYRMIRNQKRSVSLTVTRFDQLPQTYLGIGPVAPEAVKYYANEADFSVKTIADDCYQITGLSAVKRKKLRANLPLTLIPIAGTTDWKQVTENSITSPINVAI”, the “soluble on expression in E. coli” value was “not soluble”.

For the sequence “MSLDPIEFIQKSASSIASTMHKLKLKYNPFSEKPIRGNTKFFVGRVSELREIGEILGSALHGSVANAAIVGTKGIGKSSMLNIIYYATKKQGHWVVEMTASQVTPRQFLIQLLYNILTENIITMSGTIKSDYMEHSSRILDMYRKLNNYGDKVPIHYPRERIERDLEYLINEVKSPDKLCIILIDEADQFAKKSCLSLLQFFHSFLYEEGILTFMAGSPTLMDDLTKISPPIKDRIPKIINMPPLSKDESYDLIRRRLEDAHIDGAEEFEPFTEEAIHKIVEECDGIPRKIIMTCSESISIAIRKGLTKIDEKVVKEAMHSLGISVGHQILNHLTPAQSEIVRAMAELGGSATVTQLAEYLKKSPSTIGTHLSDIYEMGYIYKEREGNNVYYKLSKELRDVLIGEDDEGHHHHHH”, the “soluble on expression in E. coli” value is on record as “soluble”.

On to “MTTATSTEPTLELQRLELAELINRHAGEPFGPASAIDDLYLVRYTENVRSVPTLAQPALCILAQGSKSLFLGDEQYAYDPLHYMVVSVTLPLSAVRLDASPENPSLGLRMDLDPAEISQLIAESGPMLVPNRPSGRGLYVERTDAALLDALLRLLRLLDTPRDIAMLAPLFRREILYRLLRGPQGYRLYEIALANSQTHRVCQAITWLNNNFQQPLRIEDLAREVNLSTSTLHHRFKAVTSMSPLQYQKQLRLQEARRLMLNDGLEAAVAAYRVGYESPSQFSREYSRLYGAPPIRDVARLRATAV”, for which the “soluble on expression in E. coli” value is on record as “not soluble”.

“MVDFKLSPSQLEARRHAQAFANTVLTKASAEYSTQKDQLSRFQATRPFYREAVRHGLIKAQVPIPLGGTMESLVHESIILEELFAVEPATSITIVATALGLMPVILCDSPSLQEKFLKPFISGEGEPLASLMHSEPNGTANWLQKGGPGLQTTARKVGNEWVISGEKLWPSNSGGWDYKGADLACVVCRVSDDPSKPQDPNVDPATQIAVLLVTRETIANNKKDAYQILGEPELAGHITTSGPHTRFTEFHVPHENLLCTPGLKAQGLVETAFAMSAALVGAMAIGTARAAFEEALVFAKSDTRGGSKHIIEHQSVADKLIDCKIRLETSRLLVWKAVTTLEDEALEWKVKLEMAMQTKIYTTDVAVECVIDAMKAVGMKSYAKDMSFPRLLNEVMCYPLFDGGNIGLKRRQMQRVMALEDYEPWAATYGSSKVDKSRL”: the “soluble on expression in E. coli” value is on record as “soluble”.

For “MSLFTCEDPAVWKAVHNKYWTVVEAKSAGKRKTSGKLLQLDKWFQEDLPAAITARPERFLTHAELVKIMEWKLTKGKFRPRLQQLIGSNNEEAVQSSSSKAFSLLPDVQAAIKELCKLKGVGSATASAVLVAGAPDKVAFMADEAVESIAELRPVEYTDKHYALYLQKMLWKTSELNKVDAQQDWTPHRVEQCLWTWTVANQIQPSLLQGVSLKDATNQKPEKRKTADEKPSKRKKTE”, the “soluble on expression in E. coli” value is given as “not soluble”.

As to “MIDRLAMIGVNVKTASREHVARLEKEWEKHLDTIGYASRGTVIIATCNRFEVYLDSPSRLVEDLASSIASPGGEGLVRLQGIDAARHLFRVASGLESQIIGDHEVLGQVRRAWLKSREKGFTTPLLDEVFHRALKTGARVRSESAISSGGVGYSSAAVSLAASLLGGGLDGARVGIVGAGMAAVGIARALCTRWRPRVVAVFNRTPERGWEVAGKCRGVESLVLPLDELAKLINELDALFVAIAGSTNILERGRVERGVSPRVIVDISNPPVTPKVAGRVFHMPEVEEEAKRMMEERLRWIPAAEAIIEEELEALLDALSRRRARESSRSVMRALSILAEREYERTLAGLRNGVDPREAVELALNSYTKKVGGALRRLLEEASDRGQLSLEDIEAILVSEFARIAENSGFKNGSTG”, the “soluble on expression in E. coli” value is given as “soluble”.

Regarding “MGSDKIHHHHHHMNKEVDLSVSCLGKVKELKYDVIILPWGATEPHNLHLPYLTDCILPHDIAVEAAELALSRSGVRCMVMPPVPFGAHNPGQRELPFCIHTRYATQQAILEDIVSSLHVQGFRKLLILSGHGGNNFKGMIRDLAFEYPDFLIAAANWFEVVSPKGYFEAEIDDHAGESETSVMMHYHPELVNLAEAGDGESKPFAIASLNEKVAWVPRHWDKATVDSGVGNPKKATAEKGERYVKPIVEKLAGLFEEMAQHDLYE”, the “soluble on expression in E. coli” value was “not soluble”.

Regarding “RVLNLEEGPDAFGDYAREKLFVRARFAARQVLDSYSHDIPEEFMASLRRRFEHDINADEDDDDAMTPEERRKIQERRFALFNKVRLEALYASQAELLRARSERDVDPMIVDEVLFEIDSQIIAAEKSTR”, the “soluble on expression in E. coli” value was “not soluble”.

Turning to “MSRDTGDNLDRNQSGNLPMANVMDAYLSRRSVMRGSLGAAIAMIAGTGLTGCFDGGGSDHDDPVTEPPVTEPPVTEPEVPKLALGFQSIPGSRTDACVVAAGYSAYVLAPWGTPLNSNGNPWKSDGSNTSTDQANAMGMHHDGMHFFPINGSSEDGLLAINFEYIDTAALHPAGPTTDVNGKRPVEEVRKEINAHGAGVVRLQKINGRWQVVDNDPLNRRFTTASRMEITGPLRGTDHVKTKYSTAGTHCRGTNNNCGNGYTPWGTYLTCEENWPGIFVNKGTRPEDQRRIGVGTSSGQYKWESAAGDASEVDDEFARFDVTVKGASATDDYRNEASTYGYIVEIDPYNSSTLATKRTALGRFRHEGCAPGLPVAGKPLVWYMGDDSNNEYLYKWVSTAVWDPADATPADRLATGAKYLDQGKLYVARFNADGTGVWLLLDVATATTAGSTLGALYGDLPGIILNTRGAGDAVGATPMDRPEWTTVNPLNGDVYLTLTNNSARTPDKVDAANPRGPNRHGHIIRWHDSDDQLSFTWDIFVFGANAAGTADINRSGLTELNQFASPDGMSFDSRGVLWFETDNGETTLTDYTNDQLLAVIPTDLVDASGKQVPVNAQNQVDLRRFFVGPNGCEVTGITFTPDNKTLFVNIQHPDNWPYTDKATDATPAGATVRPRASTVVIQRIDGGEIGTV”, the “soluble on expression in E. coli” value is given as “not soluble”.

For the sequence “MENLKNYFDVVIIGAGPAGLFAAYELSKYDNLKTVVIDRGKDVLERHCAAEKLKKCIKCNPCQIMYGVGGAGGLSDGTLNLRPDIGGNLAEITNNENYAWQLIFEVDKIFLEHGGPKKLFKGSFEKIKGLQRRSAQNGVRFIPIIQRHIGSDHTKQLINNIKTTLQNRGVEFLLNTEVFKFEKNKVFVNISGKKEEINAKYIIVAPGRGNAEWFLKISEKIGLISNHGPIDVGVRVEVPSIIMESITEINHDPKFHIYTDTYDDFVRTFCTNPYGFVVEENYGDIIGVNGHSMVDKKSENTNFSFLTRIELTEPVENTTSYGKSIAKLTTTLGGGKPILQRLGDLKRGRRSTWDRLKKSSFDPTLKQVTPGDIAMALPHRIVTNIIEGLEKLDKVIPGVSNDHTLLYAPEIKYYAMKTKVNDDLETSILNIFAAGDGAGLSRDITNSCATGMLAARGILKKEGITDIFKDENTNWQEKVESMKLEHHHHHH”, the “soluble on expression in E. coli” value is given as “soluble”.

As to “MRTEGRLVRANLPLNLPSPTMRYMTPQRFGMGGTQIGNIFAPISDEQADLVLQAAWNAGVRLYDTSPFYGFGLSEYRLGRFLRGKDPADYVISTKVGRVLTAAGGARQDHAIWKSPAPFNYRYDYTAAGARRSVEDSLQRLGLPRIDIVFIHDLSPDNTELEGGWEAAYRIARTGAMVELEKMRDEGLIKAWGFGVNTPNAVVQAMGSDDPTPDIVLLACQYSLIDHSEALRNTFPALHRKGTSVVVGTPLNDGFLGGRNRYNFSLELPAGAVEKRKRIMAVAARHGIDIHTAALQFAAAHPQVSAIIPGARSPGQVMSNVQAMKVGIPAAFWAELKSQSLMDAQAPVPS”, the “soluble on expression in E. coli” value was “not soluble”.

Turning to “GAMSGLADKVIWAVNAGGESHVDVHGIHYRKDPLEGRVGRASDYGMKLPILRSNPEDQVLYQTERYNEDSFGYDIPIKEEGEYVLVLKFAEVYFAQSQQKVFDVRVNGHTVVKDLDIFDRVGHSTAHDEIIPISIKKGKLSVQGEVSTFTGKLSVEFVKGYYDNPKVCALFIMKGTADDVPMLQPHPGLE”, the “soluble on expression in E. coli” value is “soluble”.

With “SLLLKMDAFQDRLGTRGMLVRKGDHDETKVLPAVPVPQVRAANLPAAQAGDARIGTLPALFQALRASLPADEECNGLQAGDAQEPLTVTRLSTDKLLVSTDCWMGAYNVGTGVRVLNARAPFSCQPW”, the “soluble on expression in E. coli” value is “not soluble”.
